The record followed here is patent publication EP0714402B9, “POLYMER MODIFICATION” (PolyMASC Pharmaceuticals plc, priority 1993, dated 1995).

The nature of data set [1]: blood clearance after subcutaneous injection with [125I]GM-CSF tracer. The class given is in vivo, BALB/c, male, 6-8 week-old mice. The settings on record: late clearing component; for fold increase of t1/2 over the control figure: figures in parentheses; for t1/2: subcutaneous, […] body weight, mice. The procedure: BALB/c, male, 6-8 week-old mice, weighing approximately 20g, were pooled into groups of three per condition, with adlib access to food and water. The reaction products were evaluated by FPLC and the proportions of individual species were estimated by fitting summated Gaussian curves to the FPLC profiles and estimating the area under the curve corresponding to each individual peak and expressing this as a % of the total area for the whole FPLC profile (Table 4b). The inventors have previously established that the individual peaks seen at low TMPEG concentrations (peaks 0, 1, 2 and 3) correspond to GM-CSF, PEG1-GM-CSF, PEG2-GM-CSF, PEG3-GM-CSF, respectively. At high TMPEG concentrations the peaks are broader and less well resolved thus fitting of individual Gaussian curves over all regions of the FPLC profile may not be possible. Thus peak 3 and the peaks for more highly substituted GM-CSF (potentially PEG4-7-GM-CSF) have been pooled. The peak eluting with the void volume peak is well resolved from the PEG4-7-GM-CSF and presumably represents aggregates, the area of this peak was used to estimate the proportion of aggregated material (Table 4b).
The different PEGylated samples and unmodified GM-CSF (Hoechst), all containing <4% [^125I]GM-CSF (Amersham, 1222 Ci/mmol) to serve as a tracer, were adminstrated at a dose of 0.0524µg in 100µl (3.45 x 10^-12 mole; equivalent to 2.5µg/kg body weight) by subcutaneous injection. The amount of TMPEG concomitantly administered is also indicated in Table 4a (MPEG has been shown not to influence t1/2, but does influence egress from the subcutaneous site). Up to eight 25µl tail vein blood samples were collected from each mouse using capillary tubes at various time points ranging between 10 minutes and 80 hours, to give a minimum of three samples per time point. Samples from the capillary tubes were washed immediately into 1ml of PBS containing 50 I.U. of heparin. Radioactivity was determined using a gamma counter (LKB 1270 Rackgamma) results being shown in Fig. 6a (open circles for untreated material, other symbols as indicated on the figure). Clearances for the materials of reactions A and B were clearly biphasic, presumably reflecting the large proportion of unmodified material remaining in these preparations (Table 4b). Half-lives were calculated using linear regression (log concentration versus time) for the slower clearing component if biphasic elimination was present (solid lines Figure 6a; dotted lines give the 95% confidence intervals).

Data set [2] can be described thus: partition of amphotericin in dextran/PEG biphasic system. The class given is physicochemical. As to conditions: 5% dextran T-500, 5% PEG-6000, pH 6.8, absorbance at 330 nm.
The test system of data set [3] is granulocyte-macrophage colony. Kind of data set: granulocyte-macrophage colony assay (CFUgm) of GM-CSF growth stimulating activity. The format is cell-based. As to conditions: versus comparable amounts of unmodified GM-CSF, 0.1 to 8 ng/ml, Fig.3a. The text has this: (§1) A better approach is to perform a correlation analysis, plotting the response obtained with equivalent amounts of the modified and unmodified materials on an XY plot. Identical activity gives datum points randomly distributed about the line representing equal activity (the dashed lines). […] In contrast, the presence of inhibitory material, with or without loss of intrinsic activity, produces a departure, usually without convergence to the upper extremity.
(§2) Datum points are means of colony counts in triplicate dishes for three independent experiments (Fig. 3a) or of two independent thymidine uptake experiments (Fig 3b).

Data set [4] is described as follows: 3H-thymidine uptake assay of GM-CSF growth stimulating activity. The class given is cell-based. The settings on record: versus comparable amounts of unmodified GM-CSF, 0.0006 to 1.0ng/ml, Fig.3b.
Text: as §1, §2

Data set [5] can be described thus: tissue distribution, organ:blood concentration ratios. The class given is in vivo, mice. As to conditions: organ:blood concentration ratios versus GM-CSF, Fig.6b. The procedure: In order to establish the contributions to extended t1/2 we examined the tissue distribution of material prepared in an identical manner to reaction C, using an identical dose. At each of the times indicated, one aminal was sacrificed and organs/tissue including kidney, spleen, liver, lung, heart and femur were recovered and radioactivity was measured as above. […] The dotted and dashed lines indicate the blood levels of GM-CSF and PEG-GM-CSF respectively. The filled circles and open circles are the organ concentrations of PEG-GM-CSF and GM-CSF respectively. […] This is somewhat surprising since circa 24% of the reaction C mixture represents PEG1-GM-CSF (i.e. material below the renal threshold). […] Thus the degree of substitution desirable for individual targets will have to be assessed on a case-by-case basis. Table 4(A)

The nature of data set [6]: degradation of 125I-GM-CSF on storage at 4°C, FPLC profiles. The class given is physicochemical. The settings on record: for relative amount of 125I, Peak 1: high molecular weight; for relative amount of 125I, Peak 2: intermediate fragments; for relative amount of 125I, Peak 3: low molecular weight. The text has this: This process is slowed by PEG modification. […] When supplied, ^125I-GM-CSF has little or no low molecular weight labelled species. […] There has been generation of intermediate and low molecular weight fragments in both samples. The former are commensurate in size with proteolytic cleavage products and the latter either with free iodine or very small fragments (i.e. < circa 1kDa). Pegylation reduces the loss of high molecular weight species.

As for “Reaction A: PEG-modified GM-CSF preparation, GM-CSF 0.524 µg/ml reacted with TMPEG 6.46 mg/ml”, in data set [1], the “fold increase of t1/2 over the control figure” value (from here on “fold increase”) was found to be 7.2 fold and the t1/2 was found to be 11.7 h.

“Reaction B: PEG-modified GM-CSF preparation, GM-CSF 0.524 µg/ml reacted with TMPEG 19.75 mg/ml”: in data set [1], the “fold increase” value was 11.1 fold and the t1/2 amounted to 18.1 h.

As for `C[C@@H]1[C@H](O)[C@@H](C)/C=C/C=C/C=C/C=C/C=C/C=C/C=C/[C@H](O[C@@H]2O[C@H](C)[C@@H](O)[C@H](N)[C@@H]2O)C[C@@H]2O[C@](O)(C[C@@H](O)C[C@@H](O)[C@H](O)CC[C@@H](O)C[C@@H](O)CC(=O)O[C@H]1C)C[C@H](O)[C@H]2C(=O)O` [control, amphotericin], the “% material in the top (PEG-rich) phase” value in data set [2] is 4.9 ± 0.2%.

Regarding “gm-CSF PEGylated using the process of Example 1: gm-CSF coupled with TMPEG made by the process of the invention”, in data set [3], the “growth stimulating activity as assessed by granulocyte-macrophage colony assay” value is reported as “no significant loss”. Moreover, the “growth stimulating activity as assessed by thymidine uptake” value in data set [4] is “no significant loss”.

Regarding “Reaction C: PEG-modified GM-CSF preparation, GM-CSF 0.524 µg/ml reacted with TMPEG 197.5 mg/ml”, in data set [1], the “fold increase” value was determined as 10.3 fold and the t1/2 was found to be 16.8 h. For the same compound, the renal accumulation entry in data set [5] is given as “substantially reduced”.

Turning to “Reaction D: PEG-modified GM-CSF preparation, GM-CSF 0.524 µg/ml reacted with TMPEG 459.7 mg/ml; contains >50% of aggregates”, in data set [1], the “fold increase” value is listed as 15.3 fold and the t1/2 was found to be 25.1 h.

With “PEG-CM-CSF: 125I-GM-CSF exposed to TMPEG at a molar ratio of 305:1”, in data set [6] (After 1 Month Storage at 4°C), the “relative amount of 125I, Peak 1” value is 45.8; the “relative amount of 125I, Peak 2” value worked out at 8.9; the “relative amount of 125I, Peak 3” value is 36.3. In addition, in data set [6] (Before Storage), the “relative amount of 125I, Peak 1” value is given as 81.1; the “relative amount of 125I, Peak 2” value was found to be 0; the “relative amount of 125I, Peak 3” value was determined as 12.4.

Regarding “Comparative Example 1: gm-CSF PEGylated with TMPEG made by a previously described method (WO90/04606, Example 1) [reference compound]”, in data set [3], the “growth stimulating activity as assessed by granulocyte-macrophage colony assay” value is recorded as “additional inhibitory activity”. In data set [4], the “growth stimulating activity as assessed by thymidine uptake” value is “loss of activity without significant inhibitory material”.
